Source: the supplement of paper PMC9112550, “Optimization of the antimicrobial peptide Bac7 by deep mutational scanning” (BMC Biology, 2022)

Tested on: Escherichia coli TOP10
Assay: shrunken log2 fold change of peptide-encoding DNA abundance (4.5 h post-induction vs induction); higher = less antimicrobial activity (less host growth inhibition)
Details: time post-induction: 4.5 h; library: site-saturation at positions 5, 18, 19, 20
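Further: peptides expressed intracellularly from a pBAD plasmid library in pooled LB shake-flask culture, induced with 0.3% L-arabinose, DNA abundance read by NGS, three biological replicates, DESeq2 with apeglm shrinkage.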

| Sequence | shrunken log2 fold change |
| --- | --- |
| RRIRYRPPRLPRPRPRPIPQPRP | -0.0934 |
| RRIRNRPPRLPRPRPRPCPLPRP | 0.011 |
| RRIRARPPRLPRPRPRPFMRPRP | 0.59 |
| RRIRERPPRLPRPRPRPGRHPRP | -0.0636 |
| RRIRVRPPRLPRPRPRPSNRPRP | -0.147 |
| RRIRHRPPRLPRPRPRPCMCPRP | -0.245 |
| RRIRDRPPRLPRPRPRPRNCPRP | -0.152 |
| RRIRKRPPRLPRPRPRPDRWPRP | 0.683 |
| RRIRPRPPRLPRPRPRPFSLPRP | -0.365 |
| RRIRDRPPRLPRPRPRPHLTPRP | 0.176 |
| RRIRDRPPRLPRPRPRPMLPPRP | 0.16 |
| RRIRTRPPRLPRPRPRPHMDPRP | -0.422 |
| RRIRARPPRLPRPRPRPHFVPRP | 0.0302 |
| RRIRYRPPRLPRPRPRPYLSPRP | -0.274 |
| RRIRERPPRLPRPRPRPKMWPRP | -0.0633 |
| RRIRLRPPRLPRPRPRPRCYPRP | 0.0161 |
| RRIRHRPPRLPRPRPRPLIPPRP | -0.244 |
| RRIRFRPPRLPRPRPRPPLTPRP | 0.354 |
| RRIRHRPPRLPRPRPRPRFHPRP | -0.162 |
| RRIRCRPPRLPRPRPRPHFFPRP | -0.633 |
| RRIRSRPPRLPRPRPRPAPEPRP | 0.479 |
| RRIRERPPRLPRPRPRPPMIPRP | -0.0526 |
| RRIRCRPPRLPRPRPRPTAYPRP | -0.137 |
| RRIRTRPPRLPRPRPRPKGEPRP | 0.0539 |
| RRIRNRPPRLPRPRPRPSFNPRP | -0.143 |

| Sequence | shrunken log2 fold change |
| --- | --- |
| RRIRIRPPRLPRPRPRPGVWPRP | 0.191 |
| RRIRVRPPRLPRPRPRPRVNPRP | -0.159 |
| RRIRARPPRLPRPRPRPPRLPRP | 0.829 |
| RRIRPRPPRLPRPRPRPRWAPRP | 0.394 |
| RRIRMRPPRLPRPRPRPRCMPRP | 0.511 |
| RRIRARPPRLPRPRPRPWANPRP | 0.201 |
| RRIRQRPPRLPRPRPRPDMYPRP | 0.0381 |
| RRIRLRPPRLPRPRPRPHWMPRP | -0.0826 |
| RRIRRRPPRLPRPRPRPVSLPRP | -0.15 |
| RRIRARPPRLPRPRPRPGMNPRP | -0.0966 |
| RRIRYRPPRLPRPRPRPASRPRP | -0.0366 |
| RRIRDRPPRLPRPRPRPDRMPRP | -0.00945 |
| RRIRPRPPRLPRPRPRPATEPRP | 0.0977 |
| RRIRNRPPRLPRPRPRPVKPPRP | 0.0644 |
| RRIRPRPPRLPRPRPRPVWYPRP | -0.219 |
| RRIRQRPPRLPRPRPRPADTPRP | -0.128 |
| RRIRWRPPRLPRPRPRPTDYPRP | 0.233 |
| RRIRRRPPRLPRPRPRPCYCPRP | -0.00192 |
| RRIRGRPPRLPRPRPRPMRLPRP | 1.05 |
| RRIRLRPPRLPRPRPRPNMPPRP | -0.265 |
| RRIRFRPPRLPRPRPRPEHNPRP | -0.489 |
| RRIRDRPPRLPRPRPRPSDIPRP | -0.0124 |
| RRIRMRPPRLPRPRPRPYHPPRP | -0.423 |
| RRIRPRPPRLPRPRPRPVECPRP | 0.00863 |
| RRIRHRPPRLPRPRPRPASPPRP | 0.158 |

| Sequence | shrunken log2 fold change |
| --- | --- |
| RRIRGRPPRLPRPRPRPFSIPRP | -0.0155 |
| RRIRFRPPRLPRPRPRPCTVPRP | -0.318 |
| RRIRRRPPRLPRPRPRPIRLPRP | -0.104 |
| RRIRNRPPRLPRPRPRPSHQPRP | -0.374 |
| RRIRKRPPRLPRPRPRPTKDPRP | 0.522 |
| RRIRQRPPRLPRPRPRPTEKPRP | -0.047 |
| RRIRQRPPRLPRPRPRPRVPPRP | 0.339 |
| RRIRVRPPRLPRPRPRPRWVPRP | 0.309 |
| RRIRFRPPRLPRPRPRPNHKPRP | -0.405 |
| RRIRVRPPRLPRPRPRPNSRPRP | 0.00966 |
| RRIRWRPPRLPRPRPRPLQMPRP | 0.161 |
| RRIRHRPPRLPRPRPRPRRFPRP | 0.379 |
| RRIRTRPPRLPRPRPRPQRQPRP | 0.455 |
| RRIRKRPPRLPRPRPRPLEKPRP | 0.219 |
| RRIRNRPPRLPRPRPRPYKHPRP | -0.819 |
| RRIRIRPPRLPRPRPRPNKIPRP | -0.634 |
| RRIRVRPPRLPRPRPRPYTFPRP | -0.314 |
| RRIRKRPPRLPRPRPRPPMRPRP | 0.918 |
| RRIRERPPRLPRPRPRPERWPRP | -0.00254 |
| RRIRGRPPRLPRPRPRPMCRPRP | 0.393 |
| RRIRGRPPRLPRPRPRPNWMPRP | -0.194 |
| RRIRQRPPRLPRPRPRPYFLPRP | -0.923 |
| RRIRARPPRLPRPRPRPELKPRP | 0.488 |
| RRIRKRPPRLPRPRPRPRDHPRP | 0.494 |
| RRIRARPPRLPRPRPRPHKTPRP | 0.0429 |
